Data published in FireProtDB (doi:10.1016/s0022-2836(02)00630-7).

Details: Escherichia coli (strain K12), pH 7, CD, Potassium phosphate 10 mM, reversible: yes

## Phosphocarrier protein HPr wild type, P0AA04
25 °C, Urea
  denaturant m value: 1.06 kcal/mol/M
  denaturant midpoint (higher = more stable): 4.34 M
Thermal
  Tm: 63.4 °C
  unfolding enthalpy (van 't Hoff): 75.8 kcal/mol
